Tests used:
[1] = target: T1, HIV-1 NefSF2 (Δ1-44), C210A (HIV-1 SF2, UniProt P03407 45-210, C210A); assay: ITC; conditions: both partners purified
T1 construct: source: E. coli BL21(DE3), purified (Ni-NTA, Superdex 75)

[2] = target: T2, HIV-1 NefSF2 wild type, full length (1-210), C210A (HIV-1 SF2, UniProt P03407, C210A); assay: ITC; conditions: both partners purified
T2 construct: source: E. coli BL21(DE3), purified (Ni-NTA, Superdex 75)

B1: NI1-2, Hck-SH3 (78-138) with RT loop V90SWSPD (domain or fragment)
chain: not shown
notes: source: bacteria (pGEX-4T1 Tev vector), purified (GSH resin, Superdex 75)
[1]
  Kd: 179 ± 29 nM
  dH: -8.16 ± 0.07 kcal/mol
  stoichiometry N: 0.99

B2: NI1-3, Hck-SH3 (78-138) with RT loop Y90SPFSW (domain or fragment)
chain: SEDIIVVALYDYYSPFSWDLSFQKGDQMVVLEESGEWWKARSLATRKEGYIPSNYVARVDS
notes: as for B1
[1]
  Kd: 48 ± 11 nM
  dH: -7.99 ± 0.07 kcal/mol
  stoichiometry N: 0.95

B3: GST-NI1-2, GST fusion of Hck-SH3 (78-138) with RT loop V90SWSPD (domain or fragment)
chain: not shown
notes: source: bacteria (pGEX-4T1 Tev vector), purified (GSH resin, Superdex 75); not shown: GST, N-terminal, kept
[2]
  Kd: 140 ± 6.7 nM
  dH: -8.9 ± 0.02 kcal/mol
  stoichiometry N: 1.07

From publication PMC3098852, “Molecular Design, Functional Characterization and Structural Basis of a Protein Inhibitor Against the HIV-1 Pathogenicity Factor Nef” (PLoS ONE, 2011)
